Source: publication PMC4605657, “Interaction between TATA-Binding Protein (TBP) and Multiprotein Bridging Factor-1 (MBF1) from the Filamentous Insect Pathogenic Fungus Beauveria bassiana” (PLoS ONE, 2015)

Molecular target: T1, Beauveria bassiana TATA-binding protein (BbTBP) (Beauveria bassiana, UniProt J4W563 1-253)
T1 construct: open reading frame amplified with primers PTBP-F/PTBP-R and cloned EcoRI/HindIII into pET28a; the forward primer begins at the codon after the start methionine (GAG GGC ATT ...), the reverse primer holds the stop codon; also called BbTBP1; source: E. coli Rosetta DE3, purified (Ni- or Co-NTA agarose)
T1 sequence: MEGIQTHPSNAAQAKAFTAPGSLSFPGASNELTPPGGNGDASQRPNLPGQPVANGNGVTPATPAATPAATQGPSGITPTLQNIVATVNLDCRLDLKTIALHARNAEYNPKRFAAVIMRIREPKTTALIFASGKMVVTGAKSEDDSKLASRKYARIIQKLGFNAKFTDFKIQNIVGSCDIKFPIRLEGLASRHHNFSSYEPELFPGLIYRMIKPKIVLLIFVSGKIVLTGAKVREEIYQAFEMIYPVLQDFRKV
Assay: native gel or EMSA; super-shift on 6% non-denaturing PAGE; BbTBP 1129 nM and BbMBF1 855 nM with TATA-containing oligonucleotide (TATA^C 16.8 nM or TATA^P 18.3 nM); 30 min at 37°C; 60 mM KCl, 20 mM Tris pH 7.9, 5.0 mM MgCl2, 10 mM dithiothreitol, 0.2 mg/ml BSA, 10% glycerol; nucleic acid and protein stain
Details: both partners purified

B1: Beauveria bassiana multiprotein bridging factor 1 (BbMBF1) (natural protein)
chain: not shown
notes: Multiprotein bridging factor 1 of Beauveria bassiana, locus tag BBA_01830, 153 amino acids; open reading frame amplified with primers PMBF1-F/PMBF1-R and cloned EcoRI/HindIII into pET28a; the forward primer begins at the codon after the start methionine (TCT GAC GAC ...), the reverse primer holds the stop codon; source: E. coli Rosetta DE3, purified (Ni- or Co-NTA agarose)
binding result: binds
